Reference: paper PMC3306252 (Nature, 2012)
Changes are numbered by the printed parent chain. Names and notes keep the numbering of the source.

Legend:
[1] = target: Srs2(1137-1174) (S. cerevisiae) (UniProt P12954); assay: fluorescence polarisation
[2] = target: BODIPY-FL Srs2(1107-1174) (S. cerevisiae) (UniProt P12954); assay: fluorescence polarisation
Srs2(1107-1174) L1156A = target: T1, Srs2(1107-1174) L1156A (S. cerevisiae, UniProt P12954 1107-1174, L1156A, BODIPY-FL conjugated (FP was done with BODIPY-FL conjugated Srs2)); assay: fluorescence polarisation
T1 sequence: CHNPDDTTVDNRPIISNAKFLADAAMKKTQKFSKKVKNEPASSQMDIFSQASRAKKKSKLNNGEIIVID

Srs2(1107-1174) F1153A = target: T2, Srs2(1107-1174) F1153A (S. cerevisiae, UniProt P12954 1107-1174, F1153A, BODIPY-FL conjugated (FP was done with BODIPY-FL conjugated Srs2)); assay: fluorescence polarisation
T2 sequence: T1 sequence with F48A, A51L

Srs2(1107-1174) Q1155E = target: T3, Srs2(1107-1174) Q1155E (S. cerevisiae, UniProt P12954 1107-1174, Q1155E, BODIPY-FL conjugated (FP was done with BODIPY-FL conjugated Srs2)); assay: fluorescence polarisation
T3 sequence: T1 sequence with Q50E, A51L

Srs2(1107-1174) D1151A = target: T4, Srs2(1107-1174) D1151A (S. cerevisiae, UniProt P12954 1107-1174, D1151A, BODIPY-FL conjugated (FP was done with BODIPY-FL conjugated Srs2)); assay: fluorescence polarisation
T4 sequence: T1 sequence with D46A, A51L

Srs2(1107-1174) Q1149E = target: T5, Srs2(1107-1174) Q1149E (S. cerevisiae, UniProt P12954 1107-1174, Q1149E, BODIPY-FL conjugated (FP was done with BODIPY-FL conjugated Srs2)); assay: fluorescence polarisation
T5 sequence: T1 sequence with Q44E, A51L

Srs2(1107-1174) I1152A = target: T6, Srs2(1107-1174) I1152A (S. cerevisiae, UniProt P12954 1107-1174, I1152A, BODIPY-FL conjugated (FP was done with BODIPY-FL conjugated Srs2)); assay: fluorescence polarisation
T6 sequence: T1 sequence with I47A, A51L

crystal structure [3] = target: the molecule itself; assay: crystal structure
crystal structure [4] = target: the molecule itself; assay: crystal structure; remark: listed apart in the source
His6-Eco1 = target: T7, His6-Eco1 (S. cerevisiae, UniProt P43605 1-281); assay: pull-down
T7 sequence (looked up): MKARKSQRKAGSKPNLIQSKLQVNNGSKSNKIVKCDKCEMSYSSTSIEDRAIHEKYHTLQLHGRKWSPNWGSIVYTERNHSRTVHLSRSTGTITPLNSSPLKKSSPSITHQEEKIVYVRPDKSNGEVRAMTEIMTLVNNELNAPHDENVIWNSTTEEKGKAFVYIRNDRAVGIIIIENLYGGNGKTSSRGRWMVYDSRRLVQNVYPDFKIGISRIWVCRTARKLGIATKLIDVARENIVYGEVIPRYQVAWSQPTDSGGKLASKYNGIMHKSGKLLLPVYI

## GST-SUMO (from UniProt Q12306 1-101) (natural protein)
[1]
  fold weaker than Srs2(1107-1174): 4 fold
[2]
  Kd: 877 nM

## PCNA (yeast proliferating cell nuclear antigen, trimer; variant not named) (from UniProt P15873 1-258) (natural protein)
[1]
  fold weaker than Srs2(1107-1174): 3 fold
[2]
  Kd: 169 nM

## PCNA^mono (N-ethylmaleimide-treated PCNA) (from UniProt P15873 1-258) (natural protein)
[2]
  fold worse than PCNA^tri: 6.5 fold

## SUMO_K127-PCNA^mono (PCNA K164R) (from UniProt P15873 1-258; Q12306 19-98) (complex)
[2]
  Kd: 14 nM

## SUMO_K127-PCNA^tri (PCNA K164R) (from UniProt P15873 1-258; Q12306 19-98) (complex)
[2]
  Kd: 25.1 nM

## SUMO_K164-PCNA^mono K127G (from UniProt P15873 1-258; Q12306 19-98) (complex)
[2]
  Kd: 79 nM

## SUMO_K164-PCNA^tri K127G (from UniProt P15873 1-258; Q12306 19-98) (complex)
[1]
  fold tighter than Srs2(1107-1174): 8 fold
[2]
  Kd: 26.3 nM

B1: PCNA^tri K127G (natural protein, budding yeast)
chain: MLEAKFEEASLFKRIIDGFKDCVQLVNFQCKEDGIIAQAVDDSRVLLVSLEIGVEAFQEYRCDHPVTLGMDLTSLSKILRCGNNTDTLTLIADNTPDSIILLFEDTKKDRIAEYSLKLMDIDADFLGIEELQYDSTLSLPSSEFSKIVRDLSQLSDSINIMITKETIKFVADGDIGSGSVIIKPFVDMEHPETSIKLEMDQPVDLTFGAKYLLDIIKGSSLSDRVGIRLSSEAPALFQFDLKSGFLQFFLAPKFNDEE
Srs2(1107-1174) L1156A
  fold reduced affinity against wild-type Srs2(1107-1174): 73 fold
Srs2(1107-1174) F1153A
  fold reduced affinity against wild-type Srs2(1107-1174): 9 fold
Srs2(1107-1174) Q1155E
  fold reduced affinity against wild-type Srs2(1107-1174): 31 fold
Srs2(1107-1174) D1151A
  fold defect in Kd against wild-type Srs2(1107-1174): 10 fold
Srs2(1107-1174) Q1149E
  fold defect in Kd against wild-type Srs2(1107-1174): 3 fold
Srs2(1107-1174) I1152A
  fold defect in Kd against wild-type Srs2(1107-1174): 60 fold
Crystal structure [3]
  stoichiometry N: 3

B2: PCNA K127G, NEM-modified (the PCNA part of SUMO_K164-PCNA^mono) (natural protein, budding yeast)
chain: B1 chain
modifications: N-ethylmaleimide on C22 and C81; K164 conjugated to SUMO G98
Crystal structure [4]
  binding result: binds

B3: PCNA FLKI(125-128)AAAA (natural protein, budding yeast)
chain: B1 chain with F125A, L126A, G127A, I128A
His6-Eco1
  binding result: binds
